Target: biotin-conjugated Aβ_(1-40)
Assay: ELISA

B1: solanezumab-Im7 wild-type (solanezumab Fab conjugated to Immunity protein 7) (Fab, V domains shown)
VH: EVQLVESGGGLVQPGGSLRLSCAASGFTFSRYSMSWVRQAPGKGLELVAQINSVGSSTYYPDTVKGRFTISRDNAKNTLYLQMNSLRAEDTAVYYCASGDYWGQGTLVTVSS
VL: DVVMTQSPLSLPVTLGQPASISCRSSQSLIYSDGNAYLHWFLQKPGQSPRLLIYKVSNRFSGVPDRFSGSGSGTDFTLKISRVEAEDVGVYYCSQSTHVPWTFGQGTKVEIK
An EC50 of 3.5 nM was found for B1 in this work.

Source: paper doi:10.1101/2025.06.26.661714
